This is an account of results in patent publication US12006519B2, “Polymerase mutants and use with 3′-OH unblocked reversible terminators” (Agilent Technologies, Inc., priority 2021, dated 2024).

Positions count from the first letter of the chain named. In names and notes the source's numbering stands. Entries after “also recorded” stand apart in the source; their conditions may differ.

Format in all cases: biochemical
Experiment [1] relates to LTA-2. The experiment in a line: Template-independent incorporation of LTA-2, LTU-2, LTG-2, LTC-2 to priming strands. As to the method: The template-independent DNA synthesis reactions employed 7.5 U TdT (Promega) or 180 nM (3×over primer) Pfu26 (D141A/E143A/A486L/Y546H/K477W/L409Y) or Pfu48 (D141A/E143A/A486R/Y546H/K477W/L409Y). Varying concentrations of dATP were added to 2 μM (TdT) or 60 nM (Pfu) T7 FOR primer (6′Fam […]) (SEQ ID NO:6) in duplicate reactions containing 1×TdT buffer with CoCl2(Promega) or 1×ThermoPol buffer (NEB). Reactions were incubated for 30 min. at 37° C. (TdT) or 60° C. (Pfu), and then inactivated with heat (TdT; 10 min. at 70° C.) or EDTA (1 ul 500 uM EDTA). Reaction products were exposed to UV using a Stratalinker (15-watt bulbs, […], 10 min). Reactions were diluted in water (TdT, 1:333; Pfu, 1:10) and 1 μl (TdT) or 0.5 μl (Pfu) aliquots were brought up to 10 μl with HiDI/LIZ 120 Size Standard. Products were heated at 95° C. for 5 min., cooled on ice for 2 min., and then analyzed on an ABI 3500 capillary electrophoresis system ([…] capillary, filter set #5, assay=GE5 LIZ120).
In this example, primer extension was carried out with LTA-2 (FIG. 1F) as a Rp+Sp racemic mixture of α-thiotriphosphate, using the conditions described in Example 7.
In further experiments, single-base extension reactions (10 ul) were performed with an equimolar mixture (3 uM each) of two single-stranded oligommcleotides:
Both were labeled with Fam but distinguishable by their lengths using capillary electrophoresis. Primer extension reactions were performed using the following three Pfu mutants at a concentration of 18 nM polymerase: • Pfu10: Pfu polymerase with D141A/E143A/A486L/Y546H/K477W mutations (SEQ ID NO:2) • Pfu26: Pfu polymerase with D141A/E143A/A486L/Y546H/K477W/L409Y mutations (SEQ ID NO:4) • Pfu48: Pfu polymerase with D141A/E143A/A486R/Y546H/K477W/L409Y mutations (SEQ ID NO:5) The extension reactions also employed individual αS-modified LTs in Rp+Sp racemic mixture (namely, LTA-2, LTU-2, LTG-2, and LTC-2) at final concentrations of 5 uM. LTU-2, LTG-2, and LTC-2 are all C7 or C5-hydroxymethyl-a-tert-butyl-2-nitrobenzyl modified reversible terminators like LTA-2, with uracil, guanine, and cytosine in place of adenine. […] Reactions were incubated, stopped, UV-treated, and analyzed as described in Example 7.
(§1) Primer extensions were carried out in duplicate 25 ul reactions containing 7.5 U calf thymus TdT, 1×Promega TdT buffer (with CoCl2), varying concentrations of LTA-1 (100 uM, 50 uM, 10 uM, 5 uM, or 1 uM), and either 2 uM (FIG. 11A to 11C) or 80 nM (FIG. 11D to 11F) of a priming strand (Fam-labeled T7 F primer (6Fam […]), SEQ ID NO:8). Controls were performed without the addition of a polymerase. Primer extensions were also carried out in reactions containing the Pfu26 mutant polymerase, 60 nM of the priming strand, and various concentrations (10 μM or 5 μM or 1 μM) of LTA-1 or LTA-2.

Experiment [2] concerns LTA-1. Kind of experiment: Template-independent incorporation of LTA-1 to a priming strand. Here is the method: This example tested the addition of a 3′-OH unblocked reversible terminator (LTA-1, shown in FIG. 1E, or LTA-2, shown in FIG. 1F) to the 3′ end of a single-stranded priming strand. The extension reaction was performed with 2 uM or 80 nM of a priming strand and varying concentrations (100/50/10/5/1 μM) of the reversible terminator. The performance of the Pfu26 polymerase was compared to TdT polymerase.
as §1
Reactions were incubated at 37° C. for 30 min., and then heat-killed for 10 min. at 70° C. Reaction products were split in half, and one-half was treated with UV as described in Example 7. Reactions were then diluted 1:333 (2 uM primer) or 1:13 (80 nM primer) in water, and 0.5 ul portions were analyzed by capillary electrophoresis using the conditions provided in Example 7.

The subject of experiment [3] is Lightning Terminators. The experiment in a line: Sequencing-by-synthesis with Lightning Terminators (87 cycles). The arrangement: ARL (87 cycles) / Lead + Lag / Leading / Lagging: unit not given here. The note with it: alternative polymerases (D141A/E143A), same protein concentrations (0.02 ug/uL in cycle 1 and 0.002 ug/uL in cycles 2-n). Here is the method:
This section generally describes how the present mutant polymerases were used for sequencing-by-synthesis, and how their performance in sequencing was measured. Sequencing was performed on a breadboard instrument, essentially as described in Hertzog D, et al., “A high-performance, low-cost approach to next-generation sequencing”, BioOptics World. 2011 Issue November/December 2011.
In this example, mutations were introduced into the DNA polymerase of SEQ ID NO: 12 (Therminator) in an attempt to improve its capability in sequencing with 3′-OH unblocked terminators. Such mutations to Thermococcus sp. 9° N DNA polymerase are disclosed in U.S. Pat. Nos. 9,273,352; 9,677,059; 9,765,309; U.S. Pat. App. Publication No. 20160032377. The following table summarizes sequencing metrics with Lightning Terminators.
As used in this example and those that follow, “Lead+Lag” refers to dephasing errors in Sequencing by Synthesis technology caused by either reading the next base signal (Lead) or reading the previous base signal (Lag) relative to current base signals. Such errors may arise because of imperfect incoporation of reversible terminators by the polymerase.
In this example, mutant polymerases were created by introducing certain mutations (D141A/E143A/A485L) which are present in Therminator. The three mutations were introduced at the equivalent positions in JDF3 (Thermococcus sp. JDF3) and Pfu (Pyrococcus furisosus) DNA polymerases. The new mutant polymerases were then evaluated for their performance in sequencing with Lightning Terminators, as described above.

Experiment [4] concerns Lightning Terminators. Kind of experiment: Plate-based assay, incorporation of Lightning Terminators by control extracts. Particulars: control extracts, FIG. 6, FIGS. 7A-7B. Here is the method:
In this example, additional mutant polymerases were derived from Pfu polymerase. To generate the mutants, eighty-seven codons in the Pfu pol B gene were saturated using the QuikChange Lightning Mutagenesis kit and oligonucleotides containing “NDT” codons to create R, N, D, C, G, H, I, L, F, S, Y, and V substitutions with equal frequency. In some cases, mutants missing from NDT libraries were prepared in a separate QuikChange reaction with an equimolar mixture of mutagenic oligos encoding the remaining mutations (A, T, K, Q, E, P, […], W). Thirty-two clones were randomly selected from each QuikChange library (with the exception of T267, Y403, Y410, I475, G499 and K675 libraries which generated fewer transformants). Bacterial lysates were prepared and screened for incorporation of LTA and LTC using a plate-based assay with immobilized primer-templates. A limited number of mutants were also screened for utilization of LTG and LTU (similar trends; data not shown). After washing and UV cleavage (to minimize dye quenching effects), plates were read and fluorescent signals compared to Pfu controls. The following table identifies four mutant Pfu polymerases that served as controls, which were given the arbitrary names Pfu5, Pfu1, and Pfu2, along with Pfu10 (which is discussed above).
Selected lysates, based on screening results, were submitted for sequencing, and an amino acid identification was made based on the selections. […] As shown in Example 3, K477W benefits sequencing by increasing the fraction of full-length reads.

B1: TdT: commercially available preparation of calf thymus terminal deoxynucleotidyl transferase (Promega) (protein, UniProt P06526 1-509, looked up)
DNA nucleotidylexotransferase: MDPLCTASSGPRKKRPRQVGASMASPPHDIKFQNLVLFILEKKMGTTRRNFLMELARRKGFRVENELSDSVTHIVAENNSGSEVLEWLQVQNIRASSQLELLDVSWLIESMGAGKPVEITGKHQLVVRTDYSATPNPGFQKTPPLAVKKISQYACQRKTTLNNYNHIFTDAFEILAENSEFKENEVSYVTFMRAASVLKSLPFTIISMKDTEGIPCLGDKVKCIIEEIIEDGESSEVKAVLNDERYQSFKLFTSVFGVGLKTSEKWFRMGFRSLSKIMSDKTLKFTKMQKAGFLYYEDLVSCVTRAEAEAVGVLVKEAVWAFLPDAFVTMTGGFRRGKKIGHDVDFLITSPGSAEDEEQLLPKVINLWEKKGLLLYYDLVESTFEKFKLPSRQVDTLDHFQKCFLILKLHHQRVDSSKSNQQEGKTWKAIRVDLVMCPYENRAFALLGWTGSRQFERDIRRYATHERKMMLDNHALYDKTKRVFLKAESEEEIFAHLGLDYIEPWERNA
Consider B1, for which, in experiment [1] (single-stranded priming strand), the “Template-independent incorporation of LTA-2 (in words)” value is listed as “did not incorporate the LTA-2 terminator as efficiently as dATP; also recorded: failed to incorporate LTA-2”. Also, in experiment [2], the “Template-independent incorporation of LTA-1 (in words)” value was “incorporates LTA-1 much more efficiently than the more highly substituted LTA-2” and the “Termination efficiency with LTA-1” value is listed as “poor”. Further, the “Bases incorporated in a single synthesis cycle” value in experiment [2] (LTA-1, 80 nM primer) is on record as more than 3 bases. Moreover, in experiment [2] (LTA-1, 2 uM primer), the “Bases incorporated in a single synthesis cycle” value is listed as 3 bases.

B2: Pfu1: Pfu DNA polymerase with D141A/E143A/A486L (protein, UniProt P61875 1-775, looked up, variant D141A E143A A486L)
DNA polymerase: MILDVDYITEEGKPVIRLFKKENGKFKIEHDRTFRPYIYALLRDDSKIEEVKKITGERHGKIVRIVDVEKVEKKFLGKPITVWKLYLEHPQDVPTIREKVREHPAVVDIFEYDIPFAKRYLIDKGLIPMEGEEELKILAFAIATLYHEGEEFGKGPIIMISYADENEAKVITWKNIDLPYVEVVSSEREMIKRFLRIIREKDPDIIVTYNGDSFDFPYLAKRAEKLGIKLTIGRDGSEPKMQRIGDMTAVEVKGRIHFDLYHVITRTINLPTYTLEAVYEAIFGKPKEKVYADEIAKAWESGENLERVAKYSMEDAKATYELGKEFLPMEIQLSRLVGQPLWDVSRSSTGNLVEWFLLRKAYERNEVAPNKPSEEEYQRRLRESYTGGFVKEPEKGLWENIVYLDFRALYPSIIITHNVSPDTLNLEGCKNYDIAPQVGHKFCKDIPGFIPSLLGHLLEERQKIKTKMKETQDPIEKILLDYRQKLIKLLANSFYGYYGYAKARWYCKECAESVTAWGRKYIELVWKELEEKFGFKVLYIDTDGLYATIPGGESEEIKKKALEFVKYINSKLPGLLELEYEGFYKRGFFVTKKRYAVIDEEGKVITRGLEIVRRDWSEIAKETQARVLETILKHGDVEEAVRIVKEVIQKLANYEIPPEKLAIYEQITRPLHEYKAIGPHVAVAKKLAAKGVKIKPGMVIGYIVLRGDGPISNRAILAEEYDPKKHKYDAEYYIENQVLPAVLRILEGFGYRKEDLRYQKTRQVGLTSWLNIKKS
For B2, in experiment [3], the “% reads >85” value came out at 9.9%, the “ARL (87 cycles)” value worked out at 54.9 and the “Lead + Lag” value was determined as 2.1. Further, in experiment [4], the “Utilization of Lightning Terminators (in words)” value was “could utilize Lightning Terminators”.

B3: Pfu48: Pfu D141A/E143A/A486R/Y546H/K477W/L409Y, SEQ ID NO:5 (protein)
chain: B2 DNA polymerase with L409Y, K477W, L486R, Y546H
modifications: Mutant of Pyrococcus furiosus Polymerase
Take B3: the “Template-independent incorporation of LTA-2, LTU-2, LTG-2 and LTC-2 (in words)” value in experiment [1] (18 nM polymerase, 5 uM terminators, CE2 and T7 oligonucleotides) is listed as “superior to Calf thymus Terminal Transferase (TdT)”.
